Experiment: soluble on expression in E. coli; label from the status in PepcDB or PDB records

Sequence | soluble on expression in E. coli
NPNTCTESIGKVAPSYVDEPESEAPATAENTQPDVIIDWQAALKQSANKEDLAKDMLRMLIDFIPEVEEVVDHALEQDDYSREELIHVIHKLHGSSSYCGVPRLKSLCATLEHALRSGASIEEIEPEMFELQDEMIKVTTTAKLYLEQ | not soluble
NRYAKLCMEREINKRTVLMQEMELENYKKINQANDKYMELLHNSNHYMRTVYGLLEQDNKDEAINIMDSVLTEYEEGELIEYSTNSILNTILSEYYDKSKTNHIEFNIFVEPGFNIECVESMDLVAMVSNLISNAYEAALKSDEKKIKVQMYMQNDGSFIIIKIENSFSGEIVSQGDRLLTTKKDGNIHGVGIESVEKVAEKYDGWVSTSWGNKSFRTMLVLNNSYVV | not soluble
NSVLFPCKYASSGCEITLPHTEKAEHEELCEFRPYSCPCPGASCKWQGSLDAVMPHLMHQHKSITTLQGEDIVFLATDINLPGAVDWVMMQSCFGFHFMLVLEKQEKYDGHQQFFAIVQLIGTRKQAENFAYRLELNGHRRRLTWEATPRSIHEGIATAIMNSDCLVFDTSIAQLFAENGNLGINVTISMC | soluble
NTDKHIYLEEHISPESQPMLSTYFRSMGKPRSIKENVLTVPQDASPETLALYYFARIYLERYEGVPLPDDMPDLIEFGRKHNMPWVVAEAKLNKAIRMIELDDDWHAELLLHDVIGESRDIGYLALQGRAYRWMGNLEIARNQIHNGLKHYRTAYELLENTVFEIQVAMTLNNIGTVYLDSSDWNRASNYLKQALDVYESSEYEYDNS | not soluble
NTPYLRPEMFPELAILQQNWQVIRDEGLHLQQLEQIKAADKYNDAGFNSFFKTGWKRFYLKWYEDAHPSASQLCPQTTALLRDIPSVKAAMFATLPDGSRLPRHRDPYAGSLRFHLGLATPNDDRCFIEVDGQRYSWRDGEGVLFDETYIHYAENTSGENRLILFCDIERPMRYRWAQKVNHWLGRHLMSAASAPN | not soluble
NVPVGMSIGVYDYELSDYAERMDAISGGAIRSSFARNGGIGFDIGASLQIGYMIKFTDSIGLSILAEAGYSHDTYSYISRLDKNNSYSYSFESLQLGVIPKFNIKNFAIGIGGGVKIPLAGNIHTKTSLFESNTKLTSDDIKRLYEKALMPYIKVTFDYSIFFTQKTAFNIGLYLGYDFGLEPNIYTVDGAIDGNRLVVDEVSYSSFDVGLQVGLKFGPSTK | not soluble
PFMFRPRKQVFQTQGAAVSSMAQTLLPNDLASKAMGSAFTALLDANEDAQKAMKIIKTLSSLSDAWENVKETLNNPEFWKQLLSRCVQLIAGMTIAVMHPDPLTLLCLGTLTAAEITSQTSLCEEIAAKFKTIFITPPPRFPTISLFQQQSPLKQVNDIFSLAKNLDWAVKTVEKVVDWFGTWIVQEEKEQTLDQLLQRFPEHAKRISDLRNGMAAYVECKESFDFFEKLYNQAVKEKRTGIAAVCEKFRQKHDHATARCEPVVIVLRGDAGQGKSLSSQVIAQAVSKTIFGRQSVYSLPPDSDFFDGYENQFAAIMDDLGQNPDGSDFTTFCQMVSTTNFLPNMASLERKGTPFTSQLVVATTNLPEFRPVTIAHYPAVERRITFDYSVSAGPVCSKTEAGYKVLDVERAFRPTGEAPLPCFQNNCLFLEKAGLQFRDNRTKEIISLVDVIERAVARIERKKKVLTTVQTLVAQ | not soluble
PHDFPHFDKERYARTTRKVIARMNQELASHEQIKGVLMIKEPWSIENGVLTPTLKIKRHVLEQKYHELGHNWPKDELVLWEEDL | not soluble
PIFEEQPINTIYPEESLEGKVSLNCRARASPFPVYKWRMNNGDVDLTSDRYSMVGGNLVINNPDKQKDAGIYYCLASNNYGMVRSTEATLSFGYLDPFPPEERPEVRVKEGKGMVLLCDPPYHFPDDLSYRWLLNEFPVFITMDKRRFVSQTNGNLYIANVEASDKGNYSCFVSSPSITKSVFSKFIPLIPIPERTTKPYPADIVVQFKDVYALMGQNVTLECFALGNPVPDIRWRKVLEPMPSTAEISTSGAVLKIFNIQLEDEGIYECEAENIRGKDKHQARIYVQAFPEWVEHINDTEVDIGSDLYWPCVATGKPIPTIRWLKNGYAYHKGELRLYDVTFENAGMYQCIAENTYGAIYANAELKILALAPTFEMNPMKKKILAAKGGRVIIECKPKAAPKPKFSWSKGTEWLVNSSRILIWEDGSLEINNITRNDGGIYTCFAENNRGKANSTGTLVITDPTRIILAPINADITVGENATMQCAASFDPALDLTFVWSFNGYVIDFNKENIHYQRNFMLDSNGELLIRNAQLKHAGRYTCTAQTIVDNSSASADLVVRGPPGPPGGLRIEDIRATSVALTWSRGSDNHSPISKYTIQTKTILSDDWKDAKTDPPIIEGNMEAARAVDLIPWMEYEFRVVATNTLGRGEPSIPSNRIKTDGAAPNVAPSDVGGGGGRNRELTITWAPLSREYHYGNNFGYIVAFKPFDGEEWKKVTVTNPDTGRYVHKDETMSPSTAFQVKVKAFNNKGDGPYSLVAVINSAQDAPSEAPTEVGVKVLSSSEISVHWEHVLEKIVESYQIRYWAAHDKEEAANRVQVTSQEYSARLENLLPDTQYFIEVGACNSAGCGPPSDMIEAFTKKAPPSQPPRIISSVRSGSRYIITWDHVVALSNESTVTGYKVLYRPDGQHDGKLYSTHKHSIEVPIPRDGEYVVEVRAHSDGGDGVVSQVKISGAPTLSPSLLGLLLPAFGILVYLEF | soluble
PLGVSAAGALDRASLRRANRLVGNASSAAAIESVNGGLTVEAVGDQVIAVTGAPTTLTIESPSWVGSDDDDGGARPGGKRTVPMAAPFALLDGELLTLGAPESGFRNYVAIRGGVDAPEVLGSRSADTMSGIGPAPLAIRQVLATGEQTASTAVGAPELQPDFPGAGVTVLDVVPGPRADWFDQEALDSLCNQEWLVTPQSNRVGMRLDGKPLERTREGELPSEGTMAGALQIPPAGLPVLFLADHPITGGYPVIGVVRDEHLDRAAQVPIGGRIRFRLVPDSADFTTTTTKTPEK | not soluble
PRRTDADGEKMLAYLNTLYADKQAFELRADSLRKEVRQRLGIDTLLAQCVNSTPILSKIRKFDGYTVQNFALETLPGLYVCGSVYTPQSKGKHALIICPNGHFGGGRYREDQQQRMGTLARMGAVCVDYDLFGWGESILQVGSTAHRSSAAHTIQAMNGLLILDYMLASRKDIDTKRIGANGGSGGGTHTVLLTTLDDRFTASAPVVSLASHFDGGCPCESGMPIQLSAGGTCNAELAATFAPRPQLVVSDGGDWTASVPALEFPYLQRIYGFYDAKDNVTNVHLPKEKHDFGPNKRNAVYDFFAEVFD | not soluble
PRVVFIDEQSGEYAVDAQDGQSLMEVATQNGVPGIVAECGGSCVCATCRIEIEDAWVEIVGEANPDENDLLQSTGEPMTAGTRLSCQVFIDPSMDGLIVRVPLPA | soluble
PSSAVGSGSEGFIVRLPAALLFKEGGIEVENSDGFLFVKRMAEIVNRLPKDVHVEVRGHTDTLPLPAQAPQDKLELTAKRALSVSKLLVKEGIDPKRITTVGRGDQDPLTHARTPEAQESNRRVDIYLYPKE | soluble
PSVQVTDGQINGESVRFIAVVPDANNHYPRAAGGEVGLLEGWTLAKVVNETIAADADRPVKRPIVAVIDVPSQAYGRREEAFGIHQALAGAAGAYAKARLAGHPVIGLIVGKAMSGAFLAHGYQANRLIAFNDSGVLVHAMGKASAARITLRTVEALEKLAATIPPMAY | not soluble
PTQSPSEFIAELARCAQPIAQANDLYASVMMAQAIVESGWGASTLSKAPNYNLFGIKGSYNGQSVYMDTWEYLNGKWLVKKEPFRKYPSYMESFQDNAHVLKTTSFQAGVYYYAGAWKSNTSSYRDATAWLTGRYATDPSYNAKLNNVITAYNL | not soluble

From the DeepSol protein solubility set
